Literature values, collected in article PMC9965408.

Target: plasmin (Homo sapiens) (UniProt P00747)
Sequence of UniProt P00747 (P00747 581-810): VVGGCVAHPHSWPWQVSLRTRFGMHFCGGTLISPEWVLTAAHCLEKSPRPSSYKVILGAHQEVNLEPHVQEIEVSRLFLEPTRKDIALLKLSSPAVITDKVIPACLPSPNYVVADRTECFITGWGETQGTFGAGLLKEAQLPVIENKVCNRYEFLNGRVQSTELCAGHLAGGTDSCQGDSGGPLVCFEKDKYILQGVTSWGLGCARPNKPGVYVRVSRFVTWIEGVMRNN

Substance: AaTI (from UniProt Q177W0)
- Ki: 7 µM
